Legend:
[1] = test system: A2780 sensitive and cisplatin resistant EOC cells; test: TACS MTT cell viability in A2780 cells; type: cell-based, human; conditions: Abciximab combined with cisplatin, CI<1 indicates synergism, FIGS. 1B-1D
Procedure: FIGS. 3A-3E. Cell viability in A2780 sensitive and cisplatin resistant EOC cells after treatment with integrin αV and integrin β1 antibody. (FIG. 3A) A2780 chemosensitive and (FIG. 3B) cisplatin resistant EOC cells were treated with or without integrin αV and integrin β1 antibody alone or in combination and viability was assessed using the TACS MTT Cell Proliferation Assay.
FIGS. 4A and 4B. Integrin αV and integrin β1 antibodies cross-react with a potential soluble target in EOC cell media. To test whether media collected from A2780 EOC cells contains a target that cross-reacts with the integrin αV or integrin β1 monoclonal antibodies, cells were cultured for 48 hours followed by removal of media. Either mouse anti-integrin αV or mouse anti-integrin β1 antibody was incubated with the conditioned cell culture media for 24 hours to block the antibody with the unknown target. […]
(§1) Cell viability was determined using the TACS MTT Cell Proliferation Assay (Trevigen, Gaithersburg, Md.) per the manufacturer's protocol. […] Absorbance was measured at 570 nm. […] A standard curve was constructed utilizing the OD readings correlating with each standard point and was utilized to determine cell number in the test samples.
Cell Viability was Determined Using the TACS MTT Cell Proliferation Assay (Trevigen, Gaithersburg, Md.) per the manufacturer's protocol. […]

[2] = test system: sensitive EOC cell lines, their Taxotere or Cisplatin resistant counterparts and colon, endometrial, lung, prostate, bladder, hepatocellular cancer cell lines; test: TACS MTT cell viability, Abciximab in cancer versus non-cancer cells; type: cell-based, human; conditions: increasing doses of Abciximab; cancer cells compared to non-cancer cells; FIG. 1A
Excerpt: FIGS. 1A-1E. Anti-cancer effects of Abciximab and NIF. (FIG. 1A) Anti-cancer effects of Abciximab in sensitive EOC cell lines (A2780, MDAH-2774, SKOV-3, OV90, TOV21G, OV112D, OV433, and HTB-161) and their Taxotere or Cisplatin resistant counterparts, human macrophages, and other cancer cell lines including colon (HTB-37), endometrial (CRL-1671), lung (CCL-257), prostate (CRL-1740), bladder (HTB-4), and hepatocellular (HB-8065) cancers, in vitro. (FIG. 1B) The combined effect of Abciximab alone or in combination with Cisplatin in both sensitive A2780 and their (FIG. 1C) Cisplatin resistant counterpart in vitro. […] (FIG. 1E) Anti-cancer effects of NIF in both sensitive A2780 and their Cisplatin resistant counterpart in vitro.
as §1, with “protocol. Briefly, measurement of cell proliferation is based upon the reduction of the tetrazolium salt, 3,[4,5-dimethytthiazol-2-yl]-2,5-diphenyl-tetrazolium bromide (MTT). MTT is reduced to an insoluble formazan dye by mitochondrial enzymes associated with metabolic activity of living cells.” for “protocol.”, “samples. […]” for “samples.”

B1: Abciximab (antibody, chains of the INN, looked up, V domains shown)
VH: EVQLQQSGTVLARPGASVKMSCEASGYTFTNYWMHWVKQRPGQGLEWIGAIYPGNSDTSYIQKFKGKAKLTAVTSTTSVYMELSSLTNEDSAVYYCTLYDGYYVFAYWGQGTLVTVSA
VL: EIVLTQSPVTLSVTPGDSVSLSCRASRDISNNLHWFQQTSHESPRLLIKYASQSMSGIPSRFSGSGSGTDFTLSINSVETEDFGMYFCQQTNSWPYTFGGGTKLEIK
modifications: Fab
effect of combination with cisplatin [1]: synergistic effect
anti-cancer activity (cell viability) [2]: significant
